Drawing on patent US5879917, this text covers Kd for 2 substances.

In the data set the test system is hUBF (RNA polymerase I transcription factor UBF), HeLa (Homo sapiens). Briefly: footprint. The note with it: 14 mM MgCl2, 50 mM KCl, pH 7.9, 30 C.

“G^G-100 (100 bp with single central cisplatin 1,2-d(GpG) intrastrand crosslink)” had a Kd (single cis-[Pt(NH3)2]2+ d(GpG) 1,2-intrastrand adduct, central, non-cooperative) of 0.06 nM.
Regarding “human rRNA promoter -208 to +78 (EcoRI-BstEII fragment of pSBr208, 286 bp)”, the Kd (apparent Kd (half-maximal), cooperative, Hill 2.7) stood at 0.018 nM.
